Key:
[1] = biological target: progesterone receptor isoform A (PR-A), full-length, Strep II-tagged (human) (UniProt P06401); experiment: SEC-MALS
[2] = biological target: steroid receptor coactivator 3 (SRC3), full-length, Strep II-tagged (human) (UniProt Q9Y6Q9); experiment: SEC-MALS
steroid receptor coactivator 3 (SRC3), full-length, Strep II-tagged (human), sequence (Q9Y6Q9 whole entry): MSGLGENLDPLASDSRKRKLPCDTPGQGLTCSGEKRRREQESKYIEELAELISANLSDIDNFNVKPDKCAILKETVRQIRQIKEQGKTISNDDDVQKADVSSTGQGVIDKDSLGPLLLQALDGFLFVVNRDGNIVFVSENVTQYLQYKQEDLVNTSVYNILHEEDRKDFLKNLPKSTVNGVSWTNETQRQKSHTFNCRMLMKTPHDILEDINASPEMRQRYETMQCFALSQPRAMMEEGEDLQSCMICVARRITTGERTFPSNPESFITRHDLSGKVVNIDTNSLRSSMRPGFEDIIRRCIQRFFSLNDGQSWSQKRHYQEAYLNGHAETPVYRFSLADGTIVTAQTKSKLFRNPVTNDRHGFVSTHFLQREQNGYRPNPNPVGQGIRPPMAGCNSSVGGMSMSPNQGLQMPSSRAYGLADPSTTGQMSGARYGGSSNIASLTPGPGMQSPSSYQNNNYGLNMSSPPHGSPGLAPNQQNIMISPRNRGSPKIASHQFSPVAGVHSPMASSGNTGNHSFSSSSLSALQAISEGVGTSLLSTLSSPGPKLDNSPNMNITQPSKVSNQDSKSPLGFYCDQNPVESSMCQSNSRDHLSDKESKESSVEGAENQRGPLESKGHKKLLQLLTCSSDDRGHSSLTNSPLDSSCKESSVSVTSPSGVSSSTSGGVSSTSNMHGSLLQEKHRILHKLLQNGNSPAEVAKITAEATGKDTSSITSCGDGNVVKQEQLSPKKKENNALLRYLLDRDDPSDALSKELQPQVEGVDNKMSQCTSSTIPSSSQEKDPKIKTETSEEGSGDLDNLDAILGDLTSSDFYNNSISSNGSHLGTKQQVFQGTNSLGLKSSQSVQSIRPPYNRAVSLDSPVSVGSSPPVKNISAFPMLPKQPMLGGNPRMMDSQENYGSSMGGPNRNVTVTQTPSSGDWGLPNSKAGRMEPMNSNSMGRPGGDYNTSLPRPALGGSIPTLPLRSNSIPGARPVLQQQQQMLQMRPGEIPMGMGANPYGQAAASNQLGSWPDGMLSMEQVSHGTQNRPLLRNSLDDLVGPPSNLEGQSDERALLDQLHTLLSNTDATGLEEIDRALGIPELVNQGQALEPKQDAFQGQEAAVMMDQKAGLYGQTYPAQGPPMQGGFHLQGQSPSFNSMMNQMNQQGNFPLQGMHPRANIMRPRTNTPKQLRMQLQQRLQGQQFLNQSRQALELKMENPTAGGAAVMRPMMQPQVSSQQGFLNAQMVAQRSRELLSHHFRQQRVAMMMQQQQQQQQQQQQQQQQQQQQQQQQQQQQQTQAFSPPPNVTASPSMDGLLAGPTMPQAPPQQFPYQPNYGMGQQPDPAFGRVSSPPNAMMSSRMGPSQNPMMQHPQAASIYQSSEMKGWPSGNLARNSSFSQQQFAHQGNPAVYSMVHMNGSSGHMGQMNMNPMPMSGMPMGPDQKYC

progesterone receptor isoform A (PR-A), full-length, Strep II-tagged (human), sequence (P06401 165-933): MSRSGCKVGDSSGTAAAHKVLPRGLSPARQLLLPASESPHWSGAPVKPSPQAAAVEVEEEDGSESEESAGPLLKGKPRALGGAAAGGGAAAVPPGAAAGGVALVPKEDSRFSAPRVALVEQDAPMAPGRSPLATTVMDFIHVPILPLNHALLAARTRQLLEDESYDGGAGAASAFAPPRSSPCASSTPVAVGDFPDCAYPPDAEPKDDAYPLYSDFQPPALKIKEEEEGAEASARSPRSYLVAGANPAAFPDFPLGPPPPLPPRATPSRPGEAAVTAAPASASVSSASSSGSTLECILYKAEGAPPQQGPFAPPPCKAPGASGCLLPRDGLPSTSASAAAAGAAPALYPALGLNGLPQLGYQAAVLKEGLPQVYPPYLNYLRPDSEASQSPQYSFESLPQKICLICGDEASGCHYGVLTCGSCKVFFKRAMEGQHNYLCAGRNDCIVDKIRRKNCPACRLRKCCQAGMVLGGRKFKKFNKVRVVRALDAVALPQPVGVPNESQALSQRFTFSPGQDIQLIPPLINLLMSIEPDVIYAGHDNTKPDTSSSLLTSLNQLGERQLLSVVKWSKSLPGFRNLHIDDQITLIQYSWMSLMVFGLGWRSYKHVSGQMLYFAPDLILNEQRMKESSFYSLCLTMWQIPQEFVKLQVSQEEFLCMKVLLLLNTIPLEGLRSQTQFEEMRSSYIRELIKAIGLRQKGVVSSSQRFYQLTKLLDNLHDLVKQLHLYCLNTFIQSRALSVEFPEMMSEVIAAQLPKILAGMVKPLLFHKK

stoichiometry N [1]: 0.5 p300 per PR
stoichiometry N (p300 per SRC3) [2]: 1
Substance: histone acetyltransferase p300, full-length, Strep II-tagged, Q09472 1-2414
